Laboratory results taken from patent publication US8734776B2 (ZymoGenetics, Inc., priority 2003, dated 2014).

Key:
zcyto24 = target: T1, zcyto24 (Mus musculus, UniProt Q4VK74); experiment: Inhibition of ligand-induced ISRE signaling by soluble receptors, zcyto24; format: cell-based; details: ligand Zcyto24 10 ng/ml; soluble receptor 10 micrograms/ml
T1 sequence (Q4VK74 20-193): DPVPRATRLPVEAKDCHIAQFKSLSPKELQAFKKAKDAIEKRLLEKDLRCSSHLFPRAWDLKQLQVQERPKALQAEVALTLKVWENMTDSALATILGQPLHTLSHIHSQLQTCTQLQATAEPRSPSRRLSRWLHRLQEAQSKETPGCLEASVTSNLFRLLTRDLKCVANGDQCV
Source text: (§1) A signal transduction reporter assay can be used to show the inhibitor properties of zcytor19-Fc4 homodimeric and zcytor19-Fc/CRF2-4-Fc heterodimeric soluble receptors on zcyto20, zcyto21 and zcyto24 signaling Human embryonal kidney (HEK) cells overexpressing the zcytor19 receptor are transfected with a reporter plasmid containing an interferon-stimulated response element (ISRE) driving transcription of a luciferase reporter gene. Luciferase activity following stimulation of transfected cells with ligands (including zcyto20 (SEQ ID NO:2), zcyto21 (SEQ ID NO:4), zcyto24 (SEQ ID NO: 8)) reflects the interaction of the ligand with soluble receptor.
(§2) 293 HEK cells overexpressing zcytor19 were transfected as follows: 700,000 293 cells/well (6 well plates) were plated approximately 18 h prior to transfection in 2 milliliters DMEM+10% fetal bovine serum. Per well, 1 microgram pISRE-Luciferase DNA (Stratagene) and 1 microgram pIRES2-EGFP DNA (Clontech,) were added to 6 microliters Fugene 6 reagent (Roche Biochemicals) in a total of 100 microliters DMEM. This transfection mix was added 30 minutes later to the pre-plated 293 cells. Twenty-four hours later the transfected cells were removed from the plate using trypsin-EDTA and replated at approximately 25,000 cells/well in 96 well microliter plates. Approximately 18 h prior to ligand stimulation, media was changed to DMEM+0.5% FBS.
(§3) The signal transduction reporter assays were done as follows: Following an 18 h incubation at 37° C. in DMEM+0.5% FBS, transfected cells were stimulated with 10 ng/ml zcyto20, zcyto21 or zcyto24 and 10 micrograms/ml of the following soluble receptors; human zcytor19-Fc homodimer, human zcytor19-Fc/human CRF2-4-Fc heterodimer, human CRF2-4-Fc homodimer, murine zcytor19-Ig homodimer. Following a 4-hour incubation at 37° C., the cells were lysed, and the relative light units (RLU) were measured on a luminometer after addition of a luciferase substrate. The results obtained are shown as the percent inhibition of ligand-induced signaling in the presence of soluble receptor relative to the signaling in the presence of PBS alone.

zcyto21 = zcyto21 (Homo sapiens, UniProt Q8IU54); experiment: Inhibition of ligand-induced ISRE signaling by soluble receptors, zcyto21; format: cell-based; details: ligand Zcyto21 10 ng/ml; soluble receptor 10 micrograms/ml
zcyto21, sequence (Q8IU54 20-200): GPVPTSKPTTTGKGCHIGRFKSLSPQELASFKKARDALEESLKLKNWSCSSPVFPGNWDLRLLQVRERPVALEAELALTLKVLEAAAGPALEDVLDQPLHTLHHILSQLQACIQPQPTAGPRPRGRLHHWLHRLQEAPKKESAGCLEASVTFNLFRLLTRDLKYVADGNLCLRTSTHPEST
Source text: as §1, §2, §3

zcyto20 = target: T2, zcyto20 (Homo sapiens, UniProt Q8IZJ0); experiment: Inhibition of ligand-induced ISRE signaling by soluble receptors, zcyto20; format: cell-based; details: soluble receptor 10 micrograms/ml; for Percent Inhibition of Ligand-induced ISRE Signaling by Soluble Receptors: ligand Zcyto20 10 ng/ml; for effect on ligand-induced signaling: zcyto20, zcyto21 or zcyto24 10 ng/ml
T2 sequence (Q8IZJ0 26-200): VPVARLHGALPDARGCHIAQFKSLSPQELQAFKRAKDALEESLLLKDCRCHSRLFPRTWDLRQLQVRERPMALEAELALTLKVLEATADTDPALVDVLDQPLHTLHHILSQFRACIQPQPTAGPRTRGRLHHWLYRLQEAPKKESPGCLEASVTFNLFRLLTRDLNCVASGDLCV
Source text: as §1, §2, §3

[1] = system: encephelomyocarditis virus; experiment: Antiviral assay: cytopathic effect in HeLa cells; format: cell-based, human
[2] = system: encephelomyocarditis virus; experiment: Antiviral assay: cytopathic effect in L929 cells; format: cell-based, mouse
[3] = relative CM concentration .008X
[4] = relative CM concentration .0156X
[5] = relative CM concentration .0325X
[6] = relative CM concentration .0625X
[7] = relative CM concentration .125X

“HuCRF2-4-Fc: human CRF2-4-Fc homodimer soluble receptor” was tested. Which “Percent Inhibition of Ligand-induced ISRE Signaling by Soluble Receptors” value (“Percent Inhibition” below) (zcyto24) did it give?
The value was 82%.

And the “Percent Inhibition” value (zcyto21)?
The value was 79%.

And the “Percent Inhibition” value (zcyto20)?
Its value is 80%.

And the “effect on ligand-induced signaling” value (zcyto20)?
Its value is “No significant effects”.

Which results are given for “Huzcytor19-Fc/huCRF2-4-Fc: human zcytor19-Fc/human CRF2-4-Fc heterodimer soluble receptor”?
Percent Inhibition of Ligand-induced ISRE Signaling by Soluble Receptors (zcyto24): 47%; Percent Inhibition of Ligand-induced ISRE Signaling by Soluble Receptors (zcyto21): 16%; Percent Inhibition of Ligand-induced ISRE Signaling by Soluble Receptors (zcyto20): 16%

B1: zcyto25: mouse IL-28, SEQ ID NO:10 (protein, listed as Mus musculus)
chain: MKPETAGGHMLLLLLPLLLAAVLTRTQADPVPRATRLPVEAKDCHIAQFKSLSPKELQAFKKAKGAIEKRLLEKDMRCSSHLISRAWDLKQLQVQERPKALQAEVALTLKVWENINDSALTTILGQPLHTLSHIHSQLQTCTQLQATAEPKPPSRRLSRWLHRLQEAQSKETPGCLEDSVTSNLFQLLLRDLKCVASGDQCV
modifications: SIGNAL (1)...(28)
How did the “Percentage Cytopathic Effect” value [1, 3] turn out when B1 was run?
Its value is 10%.

And the “Percentage Cytopathic Effect” value [1, 4]?
The value was 5%.

And the “Percentage Cytopathic Effect” value [1, 5]?
Its value is 5%.

And the “Percentage Cytopathic Effect” value [1, 6]?
Its value is 0%.

And the “Percentage Cytopathic Effect” value [1, 7]?
The value was 0%.

And the “Percentage Cytopathic Effect” value ([1]; relative CM concentration .25X)?
The value was 0%.

What about the “Percentage Cytopathic Effect” value ([1]; relative CM concentration .5X) of the same molecule?
The value was 0%.

And the “Percentage Cytopathic Effect” value ([2]; relative CM conc. .008X)?
Its value is 87%.

And the “Percentage Cytopathic Effect” value ([2]; relative CM conc. .0156X)?
Its value is 87%.

What about the “Percentage Cytopathic Effect” value ([2]; relative CM conc. .0325X) of the same molecule?
Its value is 87%.

What about the “Percentage Cytopathic Effect” value ([2]; relative CM conc. .0625X) of the same molecule?
Its value is 87%.

What about the “Percentage Cytopathic Effect” value ([2]; relative CM conc. .125X) of the same molecule?
The value was 87%.

What about the “Percentage Cytopathic Effect” value ([2]; relative CM conc. .25X) of the same molecule?
The value was 87%.

What about the “Percentage Cytopathic Effect” value ([2]; relative CM conc. .5X) of the same molecule?
The value was 87%.

B2: Huzcytor19-Fc: human zcytor19-Fc homodimer soluble receptor (protein)
chain: RPRLAPPQNVTLLSQNFSVYLTWLPGLGNPQDVTYFVAYQSSPTRRRWREVEECAGTKELLCSMMCLKKQDLYNKFKGRVRTVSPSSKSPWVESEYLDYLFEVEPAPPVLVLTQTEEILSANATYQLPPCMPPLDLKYEVAFWKEGAGNKTLFPVTPHGQPVQITLQPAASEHHCLSARTIYTFSVPKYSKFSKPTCFLLEVPEANWA
modifications: left off: a dimerising Fc or GST
notes: human zcytor19-Fc homodimer soluble receptor
What does the source list for B2?
Percent Inhibition of Ligand-induced ISRE Signaling by Soluble Receptors (zcyto24): 90%; Percent Inhibition of Ligand-induced ISRE Signaling by Soluble Receptors (zcyto21): 45%; Percent Inhibition of Ligand-induced ISRE Signaling by Soluble Receptors (zcyto20): 92%

B3: IL-28B: human IL-28B, previously designated zcyto22, SEQ ID NO:6 (protein, listed as Homo sapiens)
chain: MKLDMTGDCMPVLVLMAAVLTVTGAVPVARLRGALPDARGCHIAQFKSLSPQELQAFKRAKDALEESLLLKDCKCRSRLFPRTWDLRQLQVRERPVALEAELALTLKVLEATADTDPALGDVLDQPLHTLHHILSQLRACIQPQPTAGPRTRGRLHHWLHRLQEAPKKESPGCLEASVTFNLFRLLTRDLNCVASGDLCV
modifications: SIGNAL (1)...(25)
Which “Percentage Cytopathic Effect” value [1, 3] does the source give for B3 here?
The value was 0%.

What about the “Percentage Cytopathic Effect” value [1, 4] of the same molecule?
Its value is 0%.

What about the “Percentage Cytopathic Effect” value [1, 5] of the same molecule?
Its value is 0%.

What about the “Percentage Cytopathic Effect” value [1, 6] of the same molecule?
Its value is 0%.

What about the “Percentage Cytopathic Effect” value [1, 7] of the same molecule?
Its value is 0%.

And the “Percentage Cytopathic Effect” value ([1]; relative CM concentration .25X)?
The value was 0%.

And the “Percentage Cytopathic Effect” value ([1]; relative CM concentration .5X)?
The value was 0%.

And the “Percentage Cytopathic Effect” value ([2]; relative CM conc. .008X)?
Its value is 87%.

And the “Percentage Cytopathic Effect” value ([2]; relative CM conc. .0156X)?
Its value is 87%.

What about the “Percentage Cytopathic Effect” value ([2]; relative CM conc. .0325X) of the same molecule?
The value was 87%.

What about the “Percentage Cytopathic Effect” value ([2]; relative CM conc. .0625X) of the same molecule?
Its value is 87%.

What about the “Percentage Cytopathic Effect” value ([2]; relative CM conc. .125X) of the same molecule?
The value was 87%.

And the “Percentage Cytopathic Effect” value ([2]; relative CM conc. .25X)?
The value was 87%.

What about the “Percentage Cytopathic Effect” value ([2]; relative CM conc. .5X) of the same molecule?
The value was 87%.

B4: Muzcytor19-Ig: murine zcytor19-Ig homodimer soluble receptor (protein)
chain: RPRLAPPRNVTLFSQNFTVYLTWLPGLGSPPNVTYFVTYQSYIKTGWRPVEHCAGIKALVCPLMCLKKLNLYSKFKGRVQAASAHGRSPRVESRYLEYLFDVELAPPTLVLTQMEKILRVNATYQLPPCMPSLELKYQVEFWKEGLGSKTLFPDTPYGQPVQIPLQQGASRRHCLSARTVYTLIDIKYSQFSEPSCIFLEAPGDKRA
modifications: left off: a dimerising Fc or GST
notes: murine zcytor19-Ig homodimer soluble receptor
What does the source list for B4?
Percent Inhibition of Ligand-induced ISRE Signaling by Soluble Receptors (zcyto24): 89%; Percent Inhibition of Ligand-induced ISRE Signaling by Soluble Receptors (zcyto21): 103%; Percent Inhibition of Ligand-induced ISRE Signaling by Soluble Receptors (zcyto20): 91%; effect on ligand-induced signaling (zcyto20): No significant effects
